According to patent publication US20120065123A1 (published 2012):
Where no end group is shown, it is not given here.

Columns and labels:
transferrin = target: T1, transferrin; test: SPR
T1 construct: Alexa 555 labelled on arrays, amine-coupled to the chip in SPR, on beads in mRNA display; also called TRF; transferring

AKT1 = AKT1 (Homo sapiens (Human), UniProt P31749 1-480); test: SPR
PTK2 = target: T2, PTK2 (human, UniProt Q05397); test: Invitrogen Protoarray Human Protein Microarray v. 4.0; biotinylated synbody detected with fluorescently labelled streptavidin; fluorescence intensity above background
T2 construct: GST fusion, feature of the Invitrogen Protoarray Human Protein Microarray v; 4.0
T2 sequence (Q05397 whole entry, the tested form may be a part): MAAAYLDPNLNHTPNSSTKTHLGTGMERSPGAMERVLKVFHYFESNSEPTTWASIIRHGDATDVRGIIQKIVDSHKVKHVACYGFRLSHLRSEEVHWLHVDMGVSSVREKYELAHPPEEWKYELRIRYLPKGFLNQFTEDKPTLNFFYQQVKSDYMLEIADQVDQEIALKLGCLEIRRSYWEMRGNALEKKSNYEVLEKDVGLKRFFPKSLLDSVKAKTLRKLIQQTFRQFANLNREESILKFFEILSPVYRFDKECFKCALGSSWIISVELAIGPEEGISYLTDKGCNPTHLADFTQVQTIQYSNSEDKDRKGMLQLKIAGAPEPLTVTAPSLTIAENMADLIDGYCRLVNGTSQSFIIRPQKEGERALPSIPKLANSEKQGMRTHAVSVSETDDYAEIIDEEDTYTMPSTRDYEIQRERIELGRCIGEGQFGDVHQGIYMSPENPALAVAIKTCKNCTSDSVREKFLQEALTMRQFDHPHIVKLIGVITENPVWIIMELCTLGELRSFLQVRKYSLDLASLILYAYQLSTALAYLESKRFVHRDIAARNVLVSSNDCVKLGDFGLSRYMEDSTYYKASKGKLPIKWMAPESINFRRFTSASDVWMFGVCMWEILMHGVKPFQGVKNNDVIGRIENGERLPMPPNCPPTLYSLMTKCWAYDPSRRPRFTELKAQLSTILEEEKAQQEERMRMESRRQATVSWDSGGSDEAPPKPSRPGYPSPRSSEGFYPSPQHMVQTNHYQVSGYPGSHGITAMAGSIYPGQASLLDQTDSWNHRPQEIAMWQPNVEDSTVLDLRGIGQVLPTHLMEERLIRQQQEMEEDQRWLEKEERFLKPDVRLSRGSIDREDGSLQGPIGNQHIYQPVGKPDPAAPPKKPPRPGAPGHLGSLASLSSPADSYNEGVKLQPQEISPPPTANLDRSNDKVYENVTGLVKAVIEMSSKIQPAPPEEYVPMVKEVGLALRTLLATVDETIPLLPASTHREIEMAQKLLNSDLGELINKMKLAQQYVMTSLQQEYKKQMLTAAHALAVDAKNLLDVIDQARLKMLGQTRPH
Method: (§1) Application of the synbodies to the microarray was performed in accordance with manufacturer instructions: (see ProtoArray Human Protein Microarray, Invitrogen, Catalog no. PAH052401, Version B, 15 Dec. 2006, 25-0970, Users Manual.) After blocking the array with 1% BSA/PBS/0.1% Tween for 1 hour at 4C with gentle shaking, 120 μl of probing buffer (1×PBS, 5 mM mgCl2, 0.5 mM DTT, 0.05% Triton X-100, 5% glycerol, 1% BSA) with synbody was applied to the array. The prescribed cover slip was placed over the array and adjusted to remove air bubbles. The array was incubated in a 50 ml conical tube, printed side up, for 1.5 hours at 4C without shaking. The array was then removed from the conical tube inserted diagonally into the array chamber, kept on ice. 8 ml probing buffer was added to the chamber wall. The cover slip was removed and the array was incubated in probing buffer for 1 minute on ice. The probing buffer was decanted and drained. Two further washings were performed adding 8 ml probing buffer, incubating on ice for 1 minute, and decanting and draining. 5 nM fluorescently labeled streptavidin diluted in 6 ml probing buffer was incubated on the array for 30 minutes on ice in the dark, after which the solution was decanted and drained. Three wash steps were performed, each by adding 8 ml probing buffer, incubating for 1 minute on ice, decanting, and draining. The array was removed from the chamber, centrifuged at 800×g for 5 minutes at room temperature. The array was dried in the dark for 60 minutes at room temperature, after which it was scanned using a fluorescent microarray scanner and data was taken and analyzed.

ANXA1 = target: T3, ANXA1 (human, UniProt P04083); test: as above
T3 construct: GST fusion, feature of the Invitrogen Protoarray Human Protein Microarray v; 4.0
T3 sequence (array feature, looked up): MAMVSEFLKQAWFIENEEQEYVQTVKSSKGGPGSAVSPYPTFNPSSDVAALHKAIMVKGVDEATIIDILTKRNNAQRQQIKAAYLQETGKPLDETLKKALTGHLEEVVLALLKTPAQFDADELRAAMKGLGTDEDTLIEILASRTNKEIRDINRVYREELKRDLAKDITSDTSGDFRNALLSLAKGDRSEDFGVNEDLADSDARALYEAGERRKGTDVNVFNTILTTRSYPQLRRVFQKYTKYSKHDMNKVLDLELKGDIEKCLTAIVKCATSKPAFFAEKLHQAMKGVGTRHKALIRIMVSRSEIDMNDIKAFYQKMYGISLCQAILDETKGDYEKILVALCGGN
Method: as §1

ACTC = target: T4, ACTC (human, UniProt P68032); test: as above
T4 construct: GST fusion, feature of the Invitrogen Protoarray Human Protein Microarray v; 4.0
Method: as §1

CHAF1B = target: T5, CHAF1B (human, UniProt Q13112); test: as above
T5 construct: GST fusion, feature of the Invitrogen Protoarray Human Protein Microarray v; 4.0
T5 sequence (Q13112 whole entry, the tested form may be a part): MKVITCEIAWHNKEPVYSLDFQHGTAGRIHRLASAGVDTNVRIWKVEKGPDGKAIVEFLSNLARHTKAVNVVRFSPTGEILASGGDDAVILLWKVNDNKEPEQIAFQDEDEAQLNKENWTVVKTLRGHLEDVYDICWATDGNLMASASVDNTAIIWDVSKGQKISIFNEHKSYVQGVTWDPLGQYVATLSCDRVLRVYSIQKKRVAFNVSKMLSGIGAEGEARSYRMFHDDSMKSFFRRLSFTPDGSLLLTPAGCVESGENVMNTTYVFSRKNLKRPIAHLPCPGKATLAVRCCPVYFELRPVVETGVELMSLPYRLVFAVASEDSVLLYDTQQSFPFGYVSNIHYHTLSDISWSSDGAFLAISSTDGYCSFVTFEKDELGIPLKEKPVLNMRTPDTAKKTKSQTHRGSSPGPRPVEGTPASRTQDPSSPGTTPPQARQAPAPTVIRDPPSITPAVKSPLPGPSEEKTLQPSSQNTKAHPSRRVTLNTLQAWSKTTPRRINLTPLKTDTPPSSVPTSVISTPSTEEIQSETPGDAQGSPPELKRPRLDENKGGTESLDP
Method: as §1

LACRT = target: T6, LACRT (human, UniProt Q9GZZ8); test: as above
T6 construct: GST fusion, feature of the Invitrogen Protoarray Human Protein Microarray v; 4.0
T6 sequence (array feature, looked up): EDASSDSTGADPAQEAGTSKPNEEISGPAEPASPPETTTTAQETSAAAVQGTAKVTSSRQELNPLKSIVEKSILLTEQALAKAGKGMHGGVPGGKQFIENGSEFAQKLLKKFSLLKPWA
Method: as §1

ROCK2 = target: T7, ROCK2 (human, UniProt O75116); test: as above
T7 construct: GST fusion, feature of the Invitrogen Protoarray Human Protein Microarray v; 4.0
T7 sequence (O75116 1-552 limits assumed): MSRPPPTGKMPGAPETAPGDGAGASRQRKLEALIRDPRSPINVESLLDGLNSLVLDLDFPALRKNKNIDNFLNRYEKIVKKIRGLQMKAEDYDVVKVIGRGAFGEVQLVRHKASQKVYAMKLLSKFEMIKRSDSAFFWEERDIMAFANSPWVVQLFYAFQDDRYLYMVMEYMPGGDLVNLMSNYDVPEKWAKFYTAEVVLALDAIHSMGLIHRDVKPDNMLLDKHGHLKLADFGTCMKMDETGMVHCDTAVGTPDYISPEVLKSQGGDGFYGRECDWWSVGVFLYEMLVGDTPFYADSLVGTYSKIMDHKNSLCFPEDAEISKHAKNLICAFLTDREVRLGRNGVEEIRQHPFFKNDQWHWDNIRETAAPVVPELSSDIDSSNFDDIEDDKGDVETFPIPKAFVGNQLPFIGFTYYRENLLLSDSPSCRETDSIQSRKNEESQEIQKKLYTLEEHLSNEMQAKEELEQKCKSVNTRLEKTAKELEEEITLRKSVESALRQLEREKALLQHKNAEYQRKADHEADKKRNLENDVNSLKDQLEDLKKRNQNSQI
Method: as §1

[1] = target: T8, Tumor Necrosis Factor-alpha (TNF-α); test: SPR equilibrium, Biacore A100, TNF-α captured on chip
T8 construct: also called TNF-a
T8 sequence (P01375 77-233): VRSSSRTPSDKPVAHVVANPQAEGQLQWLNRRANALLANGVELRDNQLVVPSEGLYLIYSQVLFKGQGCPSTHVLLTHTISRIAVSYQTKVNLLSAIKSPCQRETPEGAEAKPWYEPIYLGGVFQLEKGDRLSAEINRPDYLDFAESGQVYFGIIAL
Method: Point-mutant libraries were prepared in 96-well stock plates From the stock plate, peptides were diluted to 50 μM concentration in Biacore HBS-EP buffer (GE Healthcare, Piscataway, N.J.) containing 1 mg/ml carboxymethyl-dextran (Sigma-Aldrich, St. Louis, Mo.) to reduce non-specific binding to the CM-5 SPR chip surface. […] Spot 3 contained only immobilized neutravidin and served as a reference spot.
Purified point-mutant affinities were measured on the Biacore A100 using SPR equilibrium binding response across a series of peptide concentrations on an SPR chip with TNF-α captured as described above.

[2] = target: T8, Tumor Necrosis Factor-alpha (TNF-α); test: SPR kinetic fits of sensorgrams
[3] = target: T9, pooled human transferrin (Sigma), biotinylated (human, UniProt P02787 20-698, biotinylated at amines with NHS-LC-LC-Biotin); test: SPR Biacore A-100, purified peptide at several concentrations
T9 construct: Captured on Neutravidin on a CM5 chip (Biacore A-100)
T9 sequence (P02787 20-698 limits assumed): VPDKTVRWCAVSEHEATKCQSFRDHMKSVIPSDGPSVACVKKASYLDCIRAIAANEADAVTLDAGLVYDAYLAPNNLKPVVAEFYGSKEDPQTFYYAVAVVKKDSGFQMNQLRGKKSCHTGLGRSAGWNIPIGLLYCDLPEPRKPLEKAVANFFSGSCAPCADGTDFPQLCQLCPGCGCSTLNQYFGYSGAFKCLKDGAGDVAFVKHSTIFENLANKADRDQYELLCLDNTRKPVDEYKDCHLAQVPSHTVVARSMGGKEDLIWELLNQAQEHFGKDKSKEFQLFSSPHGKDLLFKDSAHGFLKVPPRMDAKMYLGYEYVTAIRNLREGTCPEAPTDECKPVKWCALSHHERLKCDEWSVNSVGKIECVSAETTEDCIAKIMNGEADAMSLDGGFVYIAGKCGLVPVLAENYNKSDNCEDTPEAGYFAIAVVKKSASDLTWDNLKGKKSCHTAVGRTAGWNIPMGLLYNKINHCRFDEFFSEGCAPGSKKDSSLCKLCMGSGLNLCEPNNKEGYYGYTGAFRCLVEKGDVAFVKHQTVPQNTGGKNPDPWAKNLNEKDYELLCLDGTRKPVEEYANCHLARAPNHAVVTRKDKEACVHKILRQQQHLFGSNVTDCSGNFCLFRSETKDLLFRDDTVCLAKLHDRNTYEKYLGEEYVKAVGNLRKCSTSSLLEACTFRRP
Text: A Biacore A-100 Surface Plasmon Resonance (SPR) system was used to measure the binding response of each peptide to several different target proteins immobilized on a gold surface. The A-100 has four different flow cells and within each flow cell are five addressable spots. Therefore four different proteins and a negative control reference can be used per flow cell. Depending on the purpose of the assay, up to 16 different target proteins can be immobilized on a single SPR chip. The instrument is equipped to evaluate up to 10 384-well plates unattended and can process approximately four 384-well plates per day. Sensorgrams are collected from each immobilized protein, so a binding profile for each analyte versus each of the protein targets is generated for each injection. Target proteins were immobilized using a biotin capture approach in which a CM5 chip was activated using standard amine coupling chemistry and Neutravidin was covalently coupled to the chip. Each biotinylated protein was injected over a single spot and the amount of protein captured was measured.

AKT1, sequence (P31749 whole entry): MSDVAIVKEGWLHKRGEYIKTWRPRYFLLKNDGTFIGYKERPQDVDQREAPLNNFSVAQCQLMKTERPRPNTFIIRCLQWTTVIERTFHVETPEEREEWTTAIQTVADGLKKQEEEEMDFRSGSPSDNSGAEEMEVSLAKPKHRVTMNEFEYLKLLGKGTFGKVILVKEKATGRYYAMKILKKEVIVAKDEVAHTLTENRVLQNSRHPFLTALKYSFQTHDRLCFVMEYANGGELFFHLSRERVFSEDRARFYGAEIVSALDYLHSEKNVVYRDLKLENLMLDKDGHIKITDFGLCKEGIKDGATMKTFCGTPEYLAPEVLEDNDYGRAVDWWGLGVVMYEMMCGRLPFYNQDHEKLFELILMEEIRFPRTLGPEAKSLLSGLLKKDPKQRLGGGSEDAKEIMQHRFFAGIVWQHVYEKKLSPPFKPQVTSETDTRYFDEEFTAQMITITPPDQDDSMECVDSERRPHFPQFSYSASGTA
T1 sequence (P02787 20-698): as the sequence (P02787 20-698 limits assumed) above

B1: SYN23-26 (designed binder)
peptide 1: FRGWAHIFFGPHVIYRGGSG
peptide 2: AHKVVPQRQIRHAYNRYGSG
modifications: also: linker at chain A 20 at chain B 20 to a chain's C-terminus via Lys-Cys(biotin)
notes: Two 20-mers on the alpha and epsilon amines of a lysine, about 1 nm apart; thiol of the cysteine biotinylated for array detection; also called biotinylated anti-TRF synbody
transferrin
  Kd: ~0.141 µM
AKT1
  Kd: ~0.001 µM
PTK2
  binding result: no binding
ANXA1
  binding result: binds
ACTC
  binding result: binds
CHAF1B
  binding result: binds
LACRT
  binding result: no binding
ROCK2
  binding result: no binding

## FERDPLMMPWSFLQSRQGSC [TNF1 lead peptide]
[1]
  Kd: 160 µM
[2]
  koff: 1.6 s⁻¹

B2: TRF101 (peptide)
peptide: ARDLLIQKNSGQDVDHRGSC
notes: Screened unpurified, then resynthesised and HPLC purified for the KD
[3]
  Kd: 78.9 µM
